The source of these data is patent US7335722 (FOOD INDUSTRY RESEARCH AND DEVELOPMENT INSTITUTE, dated 2008).

This assay has as its target T1, Angiotensin converting enzyme (ACE).
T1 sequence (F1RRW5 whole entry, species assumed, looked up): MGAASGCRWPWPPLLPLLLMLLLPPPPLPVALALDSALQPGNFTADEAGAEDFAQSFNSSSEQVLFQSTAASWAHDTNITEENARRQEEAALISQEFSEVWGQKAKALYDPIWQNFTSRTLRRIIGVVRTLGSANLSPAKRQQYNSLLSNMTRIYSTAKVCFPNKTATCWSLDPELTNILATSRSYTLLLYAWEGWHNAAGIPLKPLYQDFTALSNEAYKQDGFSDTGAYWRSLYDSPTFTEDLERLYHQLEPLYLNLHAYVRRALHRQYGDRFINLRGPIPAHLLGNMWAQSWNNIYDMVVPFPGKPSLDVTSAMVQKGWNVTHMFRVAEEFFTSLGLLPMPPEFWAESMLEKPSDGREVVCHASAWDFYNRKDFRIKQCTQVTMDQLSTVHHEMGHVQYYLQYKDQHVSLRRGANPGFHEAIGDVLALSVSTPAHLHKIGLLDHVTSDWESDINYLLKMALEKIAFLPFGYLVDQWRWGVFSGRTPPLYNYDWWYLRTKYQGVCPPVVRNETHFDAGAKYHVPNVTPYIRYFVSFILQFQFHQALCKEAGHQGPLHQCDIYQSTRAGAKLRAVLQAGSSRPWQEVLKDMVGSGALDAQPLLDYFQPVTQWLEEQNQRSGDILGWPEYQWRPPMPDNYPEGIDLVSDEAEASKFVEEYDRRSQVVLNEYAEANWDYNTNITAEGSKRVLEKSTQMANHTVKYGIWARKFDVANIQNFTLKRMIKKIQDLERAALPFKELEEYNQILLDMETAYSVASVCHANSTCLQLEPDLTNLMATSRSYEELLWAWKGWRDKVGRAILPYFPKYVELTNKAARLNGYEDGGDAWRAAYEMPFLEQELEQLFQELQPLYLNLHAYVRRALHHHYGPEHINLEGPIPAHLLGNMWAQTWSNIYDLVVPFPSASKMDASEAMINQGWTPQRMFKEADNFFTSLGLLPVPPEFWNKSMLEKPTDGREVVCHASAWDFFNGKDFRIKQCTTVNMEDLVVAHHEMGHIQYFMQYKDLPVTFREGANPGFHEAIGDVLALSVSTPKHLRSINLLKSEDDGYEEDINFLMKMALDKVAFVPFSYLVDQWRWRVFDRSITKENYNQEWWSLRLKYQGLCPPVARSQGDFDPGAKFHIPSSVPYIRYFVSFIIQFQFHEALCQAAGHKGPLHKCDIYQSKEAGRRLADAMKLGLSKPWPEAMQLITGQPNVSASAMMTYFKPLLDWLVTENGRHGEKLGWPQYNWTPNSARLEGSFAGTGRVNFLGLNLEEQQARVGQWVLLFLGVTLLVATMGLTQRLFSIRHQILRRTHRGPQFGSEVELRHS
In words: cell-based or functional assay.

B1: Ile-Leu-Pro-Pro (ILPP) (peptide)
peptide: ILPP
As to B1, the “ACE inhibitory activity (IC50)” value is 172 µM.

B2: Val-Leu-Pro-Pro (VLPP) (peptide)
peptide: VLPP
For the molecule B2, the “ACE inhibitory activity (IC50)” value stood at 97 µM.
